Test results taken from paper PMC7878818, “Structural mechanism of bivalent histone H3K4me3K9me3 recognition by the Spindlin1/C11orf84 complex in rRNA transcription activation” (Nature Communications, 2021).
Blank lines part the entries; values can stand above or below the binder they belong to. Square brackets hold non-standard residues; d marks the D form. Ends that are not written are not given here. Me3 = trimethyl group on lysine (trimethyl-lysine); Arg(Me2a) = CN(C)C(=N)NCCC[C@H](N)C(=O)O; Lys(Me3) = C[N+](C)(C)CCCC[C@H](N)C(=O)O

Assays:
Conditions in all cases: both partners purified
[1] = target: T1, Spindlin1 (aa: 50–262) (human, UniProt Q9Y657 50-262); test: anion-exchange chromatography; co-expressed Spindlin1 (aa 50-262) and C11orf84 (aa 219-305); SDS-PAGE of the peak fraction
T1 construct: The methods describe only co-expression plasmids with C11orf84; also called Spindlin1 alone

[2] = target: T1, Spindlin1 (aa: 50–262); test: ITC; 25 °C, MicroCal ITC200; 20 mM HEPES pH 7.5, 150 mM NaCl; 50 μM Spindlin1 or Spindlin1/C11orf84 complex in the cell, 0.8 mM peptide injected
[3] = target: T1, Spindlin1 (aa: 50–262); test: crystal structure; 1:1.5 molar ratio of Spindlin1 (aa 50-262)/C11orf84 (aa 253-295) binary complex and H3K4me3K9me3 (A1-G12) peptide; hanging drop, 291 K; 1.60 Å
[4] = target: T2, Spindlin1 (aa: 50-262) (human); test: ITC; 25 °C, MicroCal ITC200; 20 mM HEPES pH 7.5, 150 mM NaCl; 0.8 mM H3 peptide injected into 50 μM protein or complex in the sample cell
T2 construct: for the ITC of 'Spindlin1' alone the limits are not restated

[5] = target: T3, Spindlin1 (aa: 50–262)/C11orf84 (aa: 253–295) binary complex (human, UniProt Q9Y657 50-262; Q9BUA3 253-295); test: crystal structure; 1:1.5 molar ratio of Spindlin1 (aa 50-262)/C11orf84 (aa 253-295) binary complex and H3K4me3K9me3 (A1-G12) peptide; hanging drop, 291 K; 1.60 Å
T3 construct: This binary complex was mixed with the H3K4me3K9me3 (A1-G12) peptide for crystallisation; also called Spindlin1/C11orf84

[6] = target: T4, Spindlin4 (human); test: ITC; 25 °C, MicroCal ITC200; 20 mM HEPES pH 7.5, 150 mM NaCl; 0.8 mM H3 peptide injected into 50 μM protein or complex in the sample cell
T4 construct: human Spindlin4; Construct, host and purification of the Spindlin4 used for ITC are told nowhere
T4 chain: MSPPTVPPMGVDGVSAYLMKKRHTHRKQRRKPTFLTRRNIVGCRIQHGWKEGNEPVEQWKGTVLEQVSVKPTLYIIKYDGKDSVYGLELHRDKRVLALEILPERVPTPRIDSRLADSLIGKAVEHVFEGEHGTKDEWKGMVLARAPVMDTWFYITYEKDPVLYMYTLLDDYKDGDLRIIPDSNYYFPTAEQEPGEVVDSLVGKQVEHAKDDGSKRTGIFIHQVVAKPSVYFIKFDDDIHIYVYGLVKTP

T2 sequence (chain, as listed by the source): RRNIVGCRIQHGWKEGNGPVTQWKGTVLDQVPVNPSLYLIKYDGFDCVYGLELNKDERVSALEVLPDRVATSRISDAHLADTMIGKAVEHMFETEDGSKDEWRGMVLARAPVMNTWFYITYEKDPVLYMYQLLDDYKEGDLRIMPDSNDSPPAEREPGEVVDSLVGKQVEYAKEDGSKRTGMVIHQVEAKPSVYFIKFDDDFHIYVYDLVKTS
T1 sequence (Q9Y657 50-262): as the sequence (chain, as listed by the source) above
T3 sequence (Q9Y657 50-262, one chain of several): as the sequence (chain, as listed by the source) above

B1: C11orf84 (aa: 219–305) (domain or fragment, human, UniProt Q9BUA3 219-305, looked up)
chain: WKEPPGEEPVRKKRGRPMTKNLDPDPEPPSPDSPTETFAAPAEVRHFTDGSFPAGFVLQLFSHTQLRGPDSKDSPKDREVAEGGLPR
binding result [1]: binds

Binder: ART[Lys(Me3)]QTA[Arg(Me2a)]KSTG [H3K4me3R8me2a peptide]
fold by which the affinity for H3K4me3K9me3 is higher than for this peptide [2]: ~4 fold

B3: H3K4me3R8me2a peptide, H3 (1-12) (peptide)
peptide: ARTK(Me3)QTAR(asymmetric Me2)KSTG
notes: histone H3 N-terminal tail, residues 1-12
Kd [4]: 170 nM
stoichiometry N [4]: 1.02

B5: H3K4me3K9me3 peptide, H3 (1-12) (peptide)
peptide: ARTK(Me3)QTARK(Me3)STG
notes: histone H3 N-terminal tail, residues 1-12; also called H3K4me3K9me3 (A1-G12) peptide
stoichiometry N [4]: 1.04
Kd [6]: 41 ± 5 nM

The remaining lines, values ahead:

binding result [3]: binds
B2: C11orf84 (aa: 253–295) (domain or fragment, human, UniProt Q9BUA3 253-295, looked up)
chain: TETFAAPAEVRHFTDGSFPAGFVLQLFSHTQLRGPDSKDSPKD
notes: T255-Q283 defined in the electron density; The cloning of this fragment is not described; It is named only as part of the binary complex used for crystallisation; also called C11orf84 fragment; C11orf84 segment

binding result [5]: binds
binding result [3]: binds
B4: H3K4me3K9me3 (A1-G12) peptide (peptide, UniProt P68431 2-13, looked up)
peptide: ARTK(Me3)QTARK(Me3)STG
notes: histone H3 residues A1-G12; This is the peptide of the crystal structure; also called H3K4me3K9me3 peptide; methyl histone peptide
